Molecular target: SARS-CoV-2 nucleocapsid (N) protein, full-length;mAb nCoV396 (human IgG1) (SARS-CoV-2;Homo sapiens) (UniProt P0DTC9)
Assay: EMSA

## AAGUUCGUUU [TRS RNA]
  Kd: 15.1 µM
